The values below are quoted from earlier work in publication PMC11271873.

Common to all, as to conditions: free peptide
Data set [1] deals with Nterm (position 1, -----KK----).
The test system of data set [2] is Cterm (position 2, ----KK-----).
Data set [3] concerns Cterm (position 3, ---KKK-----).
The subject of data set [4] is Nterm (position 1, -----KKK---).

With Lys-Lys (di-lysine) (synthetic), the pKa is 7,53 in data set [1] and 3,01 in data set [2].
Take Lys-Lys-Lys (tri-lysine) (synthetic): the pKa is given as 3,08 in data set [3] and 7,34 in data set [4].
